Laboratory results taken from publication PMC9671922, “TOPOVIBL-REC114 interaction regulates meiotic DNA double-strand breaks” (Nature Communications, 2022).

Biological target: T1, REC114^15–159 (REC114 PH domain) (mouse, UniProt Q9CWH4 15-159)
T1 construct: Expressed from pProEXHTb; His-tag cleaved with TEV protease; source: E. coli BL21-Gold (DE3), purified (Ni2+ resin, TEV cleavage, second Ni2+ column, Superdex 200)
T1 sequence (looked up): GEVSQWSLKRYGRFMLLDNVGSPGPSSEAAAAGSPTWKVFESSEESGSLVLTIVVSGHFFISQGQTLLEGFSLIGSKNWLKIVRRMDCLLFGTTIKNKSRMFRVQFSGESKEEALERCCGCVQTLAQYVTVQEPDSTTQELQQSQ
Test: ITC; 25 °C, ITC200; 0.3-1.8 mM TOPOVIBL injected into 30-40 µM REC114 in the cell; 20 mM Tris pH 8.0, 100 mM NaCl, 5% glycerol, 5 mM β-mercaptoethanol; one-site model
Conditions: both partners purified

B1: 6xHis-TOPOVIBL C-terminal domain (CTD; 452–579) (domain or fragment, mouse, UniProt J3QMY9 452-579, looked up)
chain: SCDTEQHLTPEKNISAQNTKDQHKNIAQEFPEESIGQAENKRPKRGSPNHGREESRVLGSARDRSPPKSATRDRELTEVSLTARGSQTQAAHGRAQAAEAASPAGGLEDLWLQEVSNLSEWLNPGHRS
notes: Cloned in pProEXHTb; also called TOPOVIBL CTD; source: E. coli BL21Gold (DE3), purified (Ni-Chelating Sepharose, Superdex 200)
**Q.** For B1, which Kd is on record?
**A.** The Kd was 1200 nM.

B2: TOPOVIBL^559–576 peptide (peptide)
peptide: EDLWLQEVSNLSEWLNPG
notes: also called TOPOVIBL peptide; TOPOVIBL C-terminal peptide
**Q.** With B2 as the binder, how does the Kd read?
**A.** The Kd was 3300 nM.
